# Source: patent publication US11813311B2, “Treatment and prevention of metabolic diseases” (Singapore Health Services PTE LTD., priority 2019, dated 2023)
# B1: X209: mouse anti-mouse IL-11Rα IgG (IgG1κ), neutralising; VH SEQ ID NO:24, VL SEQ ID NO:25 (antibody, V domains shown)
# VH: QVQLQQPGAELVRPGSSVKLSCKASGYTFTNYWMHWLKQRPVQGLEWIGNIGPSDSKTHYNQKFKDKATLTVDKSSSTAYMQLNSLTSEDSAVYYCARGDYVLFTYWGQGTLVTVSA
# VL: DIVLTQSPATLSLSPGERATLSCRASQSISNNLHWYQQKSHEAPRLLIKYASQSISGIPARFSGSGSGTDFTLSFSSLETEDFAVYFCQQSYSWPLTFGQGTKLEIK
# modifications: Enx209 VH; Enx209 VL
# B2: X203: mouse anti-mouse IL-11 IgG (IgG1κ), neutralising; VH SEQ ID NO:22, VL SEQ ID NO:23 (antibody, V domains shown)
# VH: EVQLQQSGPELVKPGASVKIPCKASGYTFTDYNMDWVKQSHGKSLEWIGDINPHNGGPIYNQKFTGKATLTVDKSSSTAYMELRSLTSEDTAVYYCARGELGHWYFDVWGTGTTVTVSS
# VL: DIVLTQSPASLAVSLGQRATISCRASKSVSTSGYSYIHWYQQKPGQPPKLLIYLASNLDSGVPARFSGSGSGTDFTLNIHPVEEEDAATYYCQHSRDLPPTFGGGTKLEIK
# modifications: Enx203 VH; Enx203 VL
# Experiments:
# [1] = Long-term high dose preclinical toxicology of X209 and X203; format: in vivo, mouse; settings: 10 mg/kg ×2/week, 5 months
# Protocol: FIGS. 19A to 19J. Anti-IL-11 therapies inhibit HSC-to-myofibroblasts transformation in an ERK dependent manner and have a favourable metabolic safety profile. (A) Dose-response curve and IC50 value of X203 and X209 and ([…] to 4 μg/ml; 4-fold dilution) in inhibiting MMP2 secretion by TGFβ1-stimulated HSCs. (B) ELISA of IL-11 secretion from HSCs stimulated with various NASH factors (n≥5/group). (C) Representative fluorescence images and quantification of ACTA2^+ve cells from HSCs treated with TGFβ1 and other NASH factors in the presence of IgG, X203, or X209 (scale bars, 100 μm and dotted line represents the median value of baseline). (D) Effects of X203 and X209 on PDGF- or CCL2-induced HSC invasion. (E) Western blots of p-ERK and ERK in HSC lysates stimulated IL-11 (upper panel) or with various NASH factors in the presence of IgG or X209 (bottom panel). (F) Representative fluorescence images and quantification of ACTA2^+ve cells in HSCs treated with IL-11 and important NASH factors in the presence of ERK/MEK inhibitors U0126 or PD98059 (scale bars, 100 μm and dotted line represents the median value of baseline). (A-F) TGFβ1 (5 ng/ml), IL-11 (5 ng/ml), PDGF (20 ng/ml), AngII (100 nM), bFGF (10 ng/ml), CM (5 ng/ml), H2O2 (0.2 mM), IgG, X203 and X209 (2 μg/ml), U0126 or PD98059 (10 μM); (A,C,E-F) 24 h; (B,D) 48 h. (G) Peripheral platelet counts, (H) serum ALT levels, (I), serum triglycerides levels, and (J) serum cholesterol levels from mice injected biweekly with 10 mg/kg of X203 and X209 for 5 months (n≥5/group). (B,D) Data are shown as mean±s.d; (C,F,G-J) data are shown as box-and-whisker with median (middle line), 25th-75th percentiles (box) and min-max percentiles (whiskers). (B,D,G-J) Two-tailed Dunnett's test; (C, F) two-tailed, Tukey-corrected Student's t-test. FC: fold change.
# The published literature on IL-11 in the liver is limited but injection of high dose recombinant human IL-11 into rodents has been associated with protective effects^13,14 and there is confusion as to a role for IL-11 in platelets biology^25. To exclude safety issues, the inventors performed long-term (5 months) high dose (10 mg/kg×2/week) preclinical toxicology studies of X209 and X203 and observed no effect on serum ALT levels or platelets (FIG. 19G-19H). Consistent with the data in the Il11ra^−/− mice, anti-IL-11 therapies lowered, or trended towards lowering, serum lipid levels during this treatment period (FIGS. 19I-19J).
# [2] = system: mice with HFMCD-induced liver fibrosis; assay: HFMCD fibrosis reversal with switch to normal chow plus antibody; format: in vivo, mouse; settings: for regression of Erk activation: after removal of the metabolic stimulus; for reversal of hepatic collagen content: HFMCD 10 weeks then normal chow; for Mmp2 expression / Timp1 expression: mice with severe fibrosis
# Protocol: FIGS. 21A to 21L. Inhibition of Il-11 signalling reverses NASH pathologies in preclinical models and HSC-to-myofibroblast transformation. (A) Schematic showing therapeutic dosing regime in NASH reversal experiment for data shown in (B-G). Mice were fed with WDF for 16 weeks to induce NASH and then treated with (10 mg/kg) X209 or IgG for 8 weeks while they were on continuous WDF feeding. (B) Total liver hydroxyproline content, the levels of (C) liver triglycerides, (D) serum ALT, (E), fasting blood glucose, (F) serum triglycerides, and (G) serum cholesterol in mice on NC and IgG- and X209-treated WDF (n≥5/group). (H) Schematic showing reversal experiment in which fibrosis was established by feeding mice HFMCD for 10 weeks and then replacing this with NC and initiating antibody (X203 and X209) therapy. Mice were euthanized at the indicated time points. (I) Total liver hydroxyproline content (dotted line represents the mean value of NC=0.93) and (J) relative mRNA expression of Mmp2/Timp1 at 1-, 3-, 6-weeks after concurrent metabolic intervention (diet switch) and X203, X209, or IgG treatment (n≥3/group). Quantification of ACTA2^+ve immunostaining (scale bars, 200 μm) following incubation (K) with TGFβ1 or (L) with PDGF, either prior to or after the addition of X203, X209, or IgG (n=5/group). (K-L) TGFβ1 (5 ng/ml), PDGF (20 ng/ml), IgG, X203 and, X209 (2 μg/ml). (B-G, K-L) Data are shown as box-and-whisker with median (middle line), 25th-75th percentiles (box) and min-max percentiles (whiskers); (I) data are shown as mean±s.d; (J) data are represented as line chart (mean) and transparencies indicate s.d. (B) Two-tailed Student's t-test (C-G,K-L) two-tailed, Tukey-corrected Student's t-test; (I-J) two-way ANOVA. FC: fold change; NC: normal chow; WDF: Western diet+15% (w/v) fructose; HFMCD: high fat methionine- and choline-deficient.
# Furthermore, combination therapies may be beneficial for reversing fibrosis in NASH′. To address these points, severe liver fibrosis was established using HFMCD for 10 weeks, then converted mice to normal chow, mimicking a robust metabolic intervention, and initiated anti-IL-11 treatments in parallel (FIG. 21H).
# [3] = after three weeks of antibody treatment
# [4] = at six weeks of antibody treatment
molecule,measurement,setting,value
B1,platelets,[1],no effect
same,serum ALT levels,[1],no effect
same,regression of Erk activation,[2],accelerated
same,reversal of hepatic collagen content,[2]; [3],24%
same,reversal of hepatic collagen content,[2]; [4],46%
same,Mmp2 expression,[2],rapidly upregulated
same,Timp1 expression,[2],downregulated
B2,platelets,[1],no effect
same,serum ALT levels,[1],no effect
same,regression of Erk activation,[2],accelerated
same,reversal of hepatic collagen content,[2]; [3],18%
same,reversal of hepatic collagen content,[2]; [4],37%
same,Mmp2 expression,[2],rapidly upregulated
same,Timp1 expression,[2],downregulated
